The values that follow come from PMC5501728.

Test [1] deals with PGAM5 residues 81–289 (human) (UniProt Q96HS1). Nature of the test: AUC; sedimentation velocity, 4°C, 45,000 rpm, protein 50-60 μM in 50 mM Tris pH 7.5, 300 mM NaCl, 0.5 mM TCEP.
In test [2] the target is ΔN54-PGAM5, His6 tag cleaved (human) (UniProt Q96HS1). Briefly: crystal structure; ΔN54-PGAM5-phosphate complex; sitting drop, 20°C, 18% PEG 3350, 0.1 M MES pH 5.7.
Test [3] has as its target ΔN90-PGAM5 (residues 90–289), His6 tag cleaved (human) (UniProt Q96HS1). Nature of the test: AUC; sedimentation equilibrium, dimer to monomers (self-association model, global fit); 0.7, 0.46 and 0.35 mg/ml in 50 mM HEPES pH 7.5, 300 mM NaCl, 0.5 mM TCEP; 12,000 and 18,000 rpm.
Test [4] has the same target. Nature of the test: AUC; sedimentation velocity, 4°C, 45,000 rpm, protein 50-60 μM in 50 mM Tris pH 7.5, 300 mM NaCl, 0.5 mM TCEP.
The target is the same in test [5]. Nature of the test: crystal structure; ΔN90-PGAM5 apo and phosphate complex; sitting drop, 20°C, PEG 3350 and 5000 MME 12-20%, 0.1 M HEPES pH 7.5.
Test [6] has as its target ΔN90-PGAM5, His6 tag not cleaved (for analytical SEC) (human) (UniProt Q96HS1). Briefly: SEC; Superdex Increase s200 10/300 GL, 50 mM Tris pH 7.5, 200 mM NaCl; His-tagged proteins at several concentrations. A general note: Size exclusion chromatography separates by hydrodynamic size, large species first.

For “PGAM5 residues 81–289 (from UniProt Q96HS1 81-289) (domain or fragment)”, the stoichiometry N in test [1] was 2.
For the substance “ΔN54-PGAM5, His6 tag cleaved (from UniProt Q96HS1 54-289) (domain or fragment)”, in test [2], the stoichiometry N came to 12.
“ΔN90-PGAM5 (residues 90–289), His6 tag cleaved (from UniProt Q96HS1 90-289) (domain or fragment)” gave a dissociation constant (Kd) in test [3] of 0.48 µM. For the same substance, the stoichiometry N in test [4] and in test [5] was 2 each time.
In the case of “ΔN90-PGAM5, His6 tag not cleaved (for analytical SEC) (from UniProt Q96HS1 90-289) (domain or fragment)”, the stoichiometry N in test [6] was 2.

Broadly, the stoichiometry N is the number of molecules, sites or subunits per partner or assembly. In general, Kd refers to the equilibrium constant for the complex coming apart.
